# Residue numbers refer to the chain shown, from its start.
# T1: Recombinant human KLK5 residues I67-S293 (SEQ ID NO:328) (human, UniProt Q9Y337 67-293, lysine residues methylated in the 10C5 and 9H5 complexes that gave crystals)
# T1 construct: Expressed in Sf9 cells as ubiquitin fusion; ubiquitin removed with Enterokinase; also called Human KLK5 Crystal Structure Experiments
# T1 sequence: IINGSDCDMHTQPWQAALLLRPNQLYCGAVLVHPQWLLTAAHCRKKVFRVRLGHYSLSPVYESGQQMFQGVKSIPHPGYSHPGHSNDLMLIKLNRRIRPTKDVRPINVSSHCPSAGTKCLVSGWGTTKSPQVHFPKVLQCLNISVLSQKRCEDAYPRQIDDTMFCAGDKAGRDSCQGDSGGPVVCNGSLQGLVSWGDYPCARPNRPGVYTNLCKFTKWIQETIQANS
# B1: 8E11 (antibody, V domains shown)
# VH: QEQLEESGGDLVKPEGSLTLTCTASGFSFSSSYWICWVRQAPGKGLEWIACVYGLDVNIYYASWTKGRFTISKTSSTTVTLQMTSLTAADTATYFCARGGGSADFGFDLWGPGTLVTVSS
# VL: DVVMTQTASPVSAAVGGTVTIKCQASENIYSLLAWYQQKPGQPPKVLIYDASDLASGVPSRFKGSGSGTQFTLTISDLECADAATYYCQATAYGSSGNAFGGGTEVVVK
# B2: 8G10 (antibody, V domains shown)
# VH: QSLEESGGDLVKPEGSLTLTCTASGFSFSTSYWICWVRQAPGKGLEWIACVYGLDVNIYYASWTEGRFTISKTSSTTVTLQVTSLTAADTATYFCARGGGSADFGFDLWGPGTLVTVSS
# VL: B1 VL with A8P, S9A, P10S, A13E, A14P
# B3: 14C8 (antibody, V domains shown)
# VH: EVQLVESGGGLVQPGRSLKLSCTASGFTFSDYNMAWVRQAPKGGLEWVTTISYDAGRTYYRDSVKGRFTISRDNAKRTLSLQMDSLRSEDTATYYCATGIFNYGTDYFDYWGQGVMVTVSS
# VL: DIQMTQSPASLSASLGETVTIQCRASEDIYSGLAWYQQKPGKSPQLLIYGATTLHDGVPSRFSGSGSGTQYSLKISSMHSEDEGIYFCHQGLSFPYTFGAGTKLELK
# B4: 14E12 (antibody, V domains shown)
# VH: EVQLVESGGGLVRPGRSLRLSCAASGFTFSDYYMAWVRQAPTKGLEWVASISYDGDTTYYRDSVKGRFTISRDNARSSLYLQMDSLRSDDTANYFCTTDGTIPAGSWFAYWGQGTLVTVSS
# VL: DIQMTQSPASLSASLGETVTIECLASKNIYRNLAWYQQKPGKSPQFLISDASRLQDGVPSRFTGSDSGSQYSLKINSLQSEDVATYFCQQYHDYPYTFGAGTKLELK
# B5: 9H5 Fab (Fab, V domains shown)
# VH: EVQLVESGGGLIQPGGSLRLSCAASGFSLSSYGVSWVRQAPGKGLEYVGFIGSGGFAYYASWAKSRFTISRDNSKNTLYLQMNSLRAEDTAVYYCARDDVGGGKSLDIWGQGTLVTVSS
# VL: DIQMTQSPSSLSASVGDRVTITCQASQSISSYLSWYQQKPGKAPKLLIYSASTLASGVPSRFSGSGSGTDFTLTISSLQPEDFATYYCHQDYTSSNVDNTFGGGTKVEIKR
# notes: Fab used for crystallization with human KLK5; lysines of the complex were methylated; also called Fab 9H5 Humanized
# B6: 3-3F5 Fab (Fab, V domains shown)
# VH: EVQLLESGGGLVQPGGSLRLSCAVSGFSLNDYGVSWVRQAPGKGLEWVGAIGSSGVAWYANFAKGRFTISRDNSKNTLYLQMNSLRAEDTAVYYCARDRDYGYRADDATSGMDLWGRGTLVTVSS
# VL: AIRMTQSPSSFSASTGDRVTITCQASESIGNALAWYQQKPGKAPKLLIYDASDLASGVPSRFSGSGSGTDFTLTISSLQPEDFATYYCQQGDSHNNVDNIFGGGTKVEIKR
# notes: Fab used for crystallization with human KLK5; also called 3F5.5 Fab; Fab 3-3F5 Humanized
# B7: 10C5 Fab (Fab, V domains shown)
# VH: EVQLVESGGGLVQPGGSLRLSCAASGFSLSSYGVTWVRQAPGKGLEWIGYITSNYGVSYYASWAKSRSTISRDTSKNTVYLQMGSLRAEDMAVYYCARENPDYGYAYDAWGQGTTVTVSS
# VL: AIRMTQSPSSFSASTGDRVTITCQASESISNELSWYQQKPGKAPKLLIYYASTLASGVPSRFSGSGSGTDFTLTISSLQPEDFATYYCAQGFGSSGVENVFGGGTKVEIKR
# notes: Fab used for crystallization with human KLK5; lysines of the complex were methylated; also called Fab 10C5 Humanized
# Biological target: human KLK1 (human, UniProt P06870 25-262, limits assumed)
# Sequence (P06870 25-262 limits assumed): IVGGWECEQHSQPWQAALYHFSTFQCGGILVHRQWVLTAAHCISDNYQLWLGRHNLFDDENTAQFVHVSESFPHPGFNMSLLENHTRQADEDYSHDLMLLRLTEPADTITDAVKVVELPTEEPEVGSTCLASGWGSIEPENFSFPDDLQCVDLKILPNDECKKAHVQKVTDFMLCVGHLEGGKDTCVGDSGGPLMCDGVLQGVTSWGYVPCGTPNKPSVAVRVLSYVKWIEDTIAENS
# Test: array SPR imaging, antibody immobilized
# Method: (§1) An array-based SPR imaging system (Carterra™, USA) was used to epitope bin a panel of 288 monoclonal antibodies. Purified antibodies were diluted at 10 μg/ml in 10 mM sodium acetate buffer pH 4.5. Using amine coupling, antibodies were directly immobilized onto a SPR sensorprism CMD 200M chip (XanTec Bioanalytics GmbH, Germany) using a Continuous Flow Microspotter (Carterra™, USA) to create an array of 288 antibodies. For analysis, the IBIS MX96 SPRi (Carterra™, USA) was used to evaluate analytes binding to the immobilized ligands. For kinetic analyses, human, cyno and murine KLK5 were injected for 3 minutes from 0 to 300 nM at 3-fold dilution followed by a dissociation period of 10 minutes. Human KLK1, KLK4, and KLK7 were injected at a single concentration of 500 nM to ensure the specificities of the antibodies. For epitope binning against SPINK9-Fc-SRE, human KLK5 was first injected for 4 minute at 100 nM and was followed by a second 4 minute injection of SPINK9-Fc-SRE at 10 μg/ml. The surface was regenerated with 10 mM glycine pH1.5 between cycles. The experiment was performed at 25° C. in a running buffer of HBS-T buffer (0.01M HEPES pH 7.4, 0.15M NaCl, 0.05% surfactant P20). The kinetic data was processed using Scrubber 2.0 (BioLogic™ Software) and the epitope binning data was processed using Wasatch binning software tool (Carterra™, USA).
row,Binder,binding result
1,B1,no binding (tested: 500 nM)
2,B2,no binding (tested: 500 nM)
3,B3,no binding (tested: 500 nM)
4,B4,no binding (tested: 500 nM)

# Biological target: human KLK4 (human, UniProt Q9Y5K2 31-254, limits assumed)
# Sequence (Q9Y5K2 31-254 limits assumed): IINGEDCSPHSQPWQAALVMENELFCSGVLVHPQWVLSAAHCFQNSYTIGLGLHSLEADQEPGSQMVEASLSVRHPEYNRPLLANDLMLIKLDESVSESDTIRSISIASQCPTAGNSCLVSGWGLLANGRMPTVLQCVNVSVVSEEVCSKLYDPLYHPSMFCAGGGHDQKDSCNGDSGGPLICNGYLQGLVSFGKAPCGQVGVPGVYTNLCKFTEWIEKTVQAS
# Test: array SPR imaging, antibody immobilized
# Method: as §1
row,Binder,binding result
1,B1,no binding (tested: 500 nM)
2,B2,no binding (tested: 500 nM)
3,B3,no binding (tested: 500 nM)
4,B4,no binding (tested: 500 nM)

# Biological target: human KLK7 (human, UniProt P49862 30-253, limits assumed)
# Sequence (P49862 30-253 limits assumed): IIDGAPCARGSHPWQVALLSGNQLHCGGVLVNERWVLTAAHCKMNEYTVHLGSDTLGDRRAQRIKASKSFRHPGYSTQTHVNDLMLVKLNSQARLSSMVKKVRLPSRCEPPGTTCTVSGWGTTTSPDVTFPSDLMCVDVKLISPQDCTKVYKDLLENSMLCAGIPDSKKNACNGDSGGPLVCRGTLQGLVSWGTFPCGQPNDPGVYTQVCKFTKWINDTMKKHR
# Test: array SPR imaging, antibody immobilized
# Method: as §1
row,Binder,binding result
1,B1,no binding (tested: 500 nM)
2,B2,no binding (tested: 500 nM)
3,B3,no binding (tested: 500 nM)
4,B4,no binding (tested: 500 nM)

# Biological target: T1, Recombinant human KLK5 residues …
# Test: crystal structure of the Fab/KLK5 complex
# Method: Recombinant human KLK5 residues I67-S293 (SEQ ID NO:328) was expressed in a Baculovirus expression system as a C-terminal fusion of ubiquitin with an Enterokinase cleavage site engineered between ubiquitin and KLK5. Sf9 cells were coexpressed with EndoH with 1 mg/mL of Kifunensine. Protein was purified on a HiTrap™ Heparin column. The column was washed with 25 mM TRIS pH 7.5 for 5 CV (column volumes), and then eluted with 0-750 mM NaCl over a gradient of 20 CV. Resultant protein pool was then further purified over 5200 by SEC in 25 mM Tris pH 7.5, 300 mM NaCl. The Ubiquitin was then cleaved using Enterokinase, and sample further purified by SEC again. […] Fab fragments including heavy and light chains were expressed and purified as described. See Carter et al., Biotechnology 10(2), 163-167 (1992). KLK5 was then mixed with each of the Fabs separately, 10C5, 9H5, and 3-3F5, and the complex was purified by SEC in 25 mM HEPES pH 7.2, 100 mM NaCl. […] Crystal for the 10C5 and 9H5 complexes were only obtained when the lysine residues in the protein complexes were methylated. See Walter et al., Structure, 14(11), 1617-1622 (2006).
row,Binder,buried surface area
1,B5,805 Å^2
2,B6,956 Å^2
3,B7,~860 Å^2
